Assay [1] has as its target canine FcRn complex (FcRn-α subunit and β-microglobulin) (canine). Put plainly: SPR (Biacore), FcRn amine-coupled to CM5, IgG flowed, pH 7.2, 15 C.
The target of assay [2] is NGF (target protein of mAb2). The assay is described as follows: SPR (Biacore T200), target amine-coupled to CM5, antibody flowed, 15 C, 1:1 model.
For assay [3], the target named is canine FcRn complex (FcRn-α subunit and β-microglobulin) (canine). The assay is described as follows: SPR (Biacore), FcRn amine-coupled to CM5, IgG flowed, pH 6, 15 C.
The target of assay [4] is NGF (target protein of mAb2). The assay is described as follows: cell-based or functional assay.
The target in assay [5] is T1, canine FcRn complex (FcRn-α subunit and β-microglobulin) (canine, UniProt A0A8I3PFR8 25-347, biotin on the BAP tag by BirA (Example 5 only)). Put plainly: SPR (Biacore), biotinylated FcRn on SA chip, IgG flowed, pH 7.4, 15 C.
The target in assay [6] is T1, canine FcRn complex (FcRn-α subunit and …). Put plainly: SPR (Biacore), FcRn amine-coupled to CM5, IgG flowed, pH 6, 15 C.
In assay [7] the target is IL-31 (target protein of mAb1). The assay is described as follows: SPR (Biacore T200), target amine-coupled to CM5, antibody flowed, 15 C, 1:1 model.
The target of assay [8] is IL-31 (target protein of mAb1). The assay is described as follows: cell-based or functional assay.
For assay [9], the target named is T1, canine FcRn complex (FcRn-α subunit and …). The assay is described as follows: SPR (Biacore), biotinylated FcRn on SA chip, IgG flowed, pH 6, 15 C.
For assay [10] the target is unchanged. The assay is described as follows: SPR (Biacore), FcRn amine-coupled to CM5, IgG flowed, pH 7.2, 15 C.
The target is the same in assay [11]. Put plainly: SPR (Biacore), biotinylated FcRn on SA chip, IgG flowed, pH 6, 15 C. This is another data set of the same source.

Residue numbers refer to the chain shown, from its start. In names and notes the source's numbering stands.

T1 sequence (A0A8I3PFR8 entry or part of it, one chain of several): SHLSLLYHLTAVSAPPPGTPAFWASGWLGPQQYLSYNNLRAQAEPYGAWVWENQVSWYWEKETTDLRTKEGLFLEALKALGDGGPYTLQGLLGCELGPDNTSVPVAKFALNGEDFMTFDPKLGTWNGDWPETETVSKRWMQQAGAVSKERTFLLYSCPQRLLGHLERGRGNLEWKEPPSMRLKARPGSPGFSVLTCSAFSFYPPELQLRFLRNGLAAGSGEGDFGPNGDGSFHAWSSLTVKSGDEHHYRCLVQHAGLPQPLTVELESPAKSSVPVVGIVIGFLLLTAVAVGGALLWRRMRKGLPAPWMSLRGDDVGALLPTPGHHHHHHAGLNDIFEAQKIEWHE

B1: mAb2 of Tables 1-3, caninized anti-NGF antibody, canine IgGB (65), N434H (antibody, part only; not given: Anti-NGF heavy and light variable domains, part only)
heavy, part: ASTTAPSVFPLAPSCGSTSGSTVALACLVSGYFPEPVTVSWNSGSLTSGVHTFPSVLQSSGLYSLSSMVTVPSSRWPSETFTCNVAHPASKTKVDKPVPKRENGRVPRPPDCPKCPAPEMLGGPSVFIFPPKPKDTLLIARTPEVTCVVVDLDPEDPEVQISWFVDGKQMQTAKTQPREEQFNGTYRVVSVLPIGHQDWLKGKQFTCKVNNKALPSPIERTISKARGQAHQPSVYVLPPSREELSKNTVSLTCLIKDFFPPDIDVEWQSNGQQEPESKYRTTPPQLDEDGSYFLYSKLSVDKSRWQRGDTFICAVMHEALHHHYTQESLSHSPGK
In the case of B1, the Kd in [1] is 1300 nM; in assay [2], 0.0555 nM; in assay [3], 7.3 nM. The IC50 (cell based potency assay) in assay [4] was 20.9 nM.

B2: mAb1, caninized anti-IL31 antibody 34D03, canine IgGB (65), WT (antibody)
heavy: EVQLVESGGDLVKPGGSLRLSCVASGFTFSNYGMSWVRQAPGKGLQWVATISYGGSYTYYPDNIKGRFTISRDNAKNTLYLQMNSLRAEDTAMYYCVRGYGYDTMDYWGQGTLVTVSSASTTAPSVFPLAPSCGSTSGSTVALACLVSGYFPEPVTVSWNSGSLTSGVHTFPSVLQSSGLYSLSSMVTVPSSRWPSETFTCNVAHPASKTKVDKPVPKRENGRVPRPPDCPKCPAPEMLGGPSVFIFPPKPKDTLLIARTPEVTCVVVDLDPEDPEVQISWFVDGKQMQTAKTQPREEQFNGTYRVVSVLPIGHQDWLKGKQFTCKVNNKALPSPIERTISKARGQAHQPSVYVLPPSREELSKNTVSLTCLIKDFFPPDIDVEWQSNGQQEPESKYRTTPPQLDEDGSYFLYSKLSVDKSRWQRGDTFICAVMHEALHNHYTQESLSHSPGK
VL: EIVMTQSPASLSLSQEEKVTITCKASQSVSFAGTGLMHWYQQKPGQAPKLLIYRASNLEAGVPSRFSGSGSGTDFSFTISSLEPEDVAVYYCQQSREYPWTFGQGTKLEIK
notes: VH/VL: the caninized 34D03 entries of the listing; also called mAb1 WT; mAb1 Wild-Type
For B2, the Kd in [5] is 18700 nM; in assay [6] it was 15 to 24.4 nM; in [7], 0.483 nM; in assay [9], 19.9 nM. In assay [8], this molecule showed an IC50 (cell based potency assay) of 1.1 nM.

B3: mAb1, caninized anti-IL31 antibody 34D03, canine IgGB (65), N434H (antibody)
heavy: B2 heavy with N440H
VL: B2 VL
notes: VH/VL: the caninized 34D03 entries of the listing; also called mAb1 N434H; mAb1 N434H Mutant
Consider B3, for which the Kd is 0.7 to 1.3 nM in [6], 5000 nM in [10], 0.373 nM in assay [7] and 6.45 nM in assay [11]. Besides, the IC50 (cell based potency assay) in assay [8] stood at 0.99 nM.

The values are drawn from patent publication US20260193342A1 (ZOETIS SERVICES, published 2026).
